Measurements reported in the supplement of paper PMC11246515.
± gives the standard deviation of the averaged measurements.

Test: total protein half-life in vivo (active degradation + dilution); higher = more stable protein
[1] = E. coli NCM3722 delta-clpP delta-lon delta-hslV, growth: N-lim chemostat, doubling time 6 h
[2] = E. coli NCM3722 delta-clpP, growth: N-lim chemostat, doubling time 6 h
[3] = E. coli NCM3722 delta-hslV, growth: N-lim chemostat, doubling time 6 h
[4] = E. coli NCM3722 delta-smpB, growth: N-lim chemostat, doubling time 6 h
[5] = wild type E. coli NCM3722, growth: C-lim chemostat, doubling time 3 h
[6] = wild type E. coli NCM3722, growth: C-lim chemostat, doubling time 6 h
[7] = wild type E. coli NCM3722, growth: C-lim chemostat, doubling time 12 h
[8] = wild type E. coli NCM3722, growth: N-lim chemostat, doubling time 6 h
[9] = wild type E. coli NCM3722, growth: N-lim chemostat, doubling time 12 h
[10] = wild type E. coli NCM3722, growth: P-lim chemostat, doubling time 6 h
[11] = wild type E. coli NCM3722, growth: P-lim chemostat, doubling time 12 h
[12] = E. coli NCM3722 delta-lon, growth: N-lim chemostat, doubling time 6 h

Row | Sequence | total protein half-life in vivo [1] [h] | total protein half-life in vivo [2] [h] | total protein half-life in vivo [3] [h] | total protein half-life in vivo [4] [h] | total protein half-life in vivo [5] [h] | total protein half-life in vivo [6] [h] | total protein half-life in vivo [7] [h] | total protein half-life in vivo [8] [h] | total protein half-life in vivo [9] [h] | total protein half-life in vivo [10] [h] | total protein half-life in vivo [11] [h] | total protein half-life in vivo [12] [h]
1 | MGNNLLSAKATLPVYDLNNLAPRIVHLGFGAFHRAHQGVYADILATEHFSDWGYYEVNLIGGEQQIADLQQQDNLYTVAEMSADVWTARVVGVVKKALHVQIDGLETVLAAMCEPQIAIVSLTITEKGYFHSPATGQLMLDHPMVAADVQNPHQPKTATGVIVEALARRKAAGLPAFTVMSCDNMPENGHVMRDVVTSYAQAVDVKLAQWIEDNVTFPSTMVDRIVPAVTEDTLAKIEQLTGVRDPAGVACEPFRQWVIEDNFVAGRPEWEKAGAELVSDVLPYEEMKLRMLNGSHSFLAYLGYLAGYQHINDCMEDEHYRYAAYGLMLQEQAPTLKVQGVDLQDYANRLIARYSNPALRHRTWQIAMDGSQKLPQRMLDSVRWHLAHDSKFDLLALGVAGWMRYVGGVDEQGNPIEISDPLLPVIQKAVQSSAEGKARVQSLLAIKAIFGDDLPDNSLFTARVTETYLSLLAHGAKATVAKYSVK | 5.14 ± 0.34 | 3.3 ± 0.17 | 3.4445 ± 0.0012 | 2.77 ± 0.18 | 1.95 ± 0.0085 | 4.22 | 6.21 ± 3.1 | 3.63 ± 0.19 | 5.47 ± 0.58 | 3.61 ± 0.7 | 7.36 ± 0.28 | 
2 | MGNNLMQTDLSVWGMYQHADIVVKCVMIGLILASVVTWAIFFSKSVEFFNQKRRLKREQQLLAEARSLNQANDIAADFGSKSLSLHLLNEAQNELELSEGSDDNEGIKERTSFRLERRVAAVGRQMGRGNGYLATIGAISPFVGLFGTVWGIMNSFIGIAQTQTTNLAVVAPGIAEALLATAIGLVAAIPAVVIYNVFARQIGGFKAMLGDVAAQVLLLQSRDLDLEASAAAHPVRVAQKLRAG [P0ABU7] | 6.15 ± 0.21 | 6.38 ± 2.2 |  | 1.58 ± 1 | 1.68 ± 0.17 | 1.99 | 3.22 |  |  | 1.38 | 3.56 | 
3 | MGQQKQRNRRWVLASRPHGAPVPENFRLEEDDVATPGEGQVLLRTVYLSLDPYMRGRMSDEPSYSPPVDIGGVMVGGTVSRVVESNHPDYQSGDWVLGYSGWQDYDISSGDDLVKLGDHPQNPSWSLGVLGMPGFTAYMGLLDIGQPKEGETLVVAAATGPVGATVGQIGKLKGCRVVGVAGGAEKCRHATEVLGFDVCLDHHADDFAEQLAKACPKGIDIYYENVGGKVFDAVLPLLNTSARIPVCGLVSSYNATELPPGPDRLPLLMATVLKKRIRLQGFIIAQDYGHRIHEFQREMGQWVKEDKIHYREEITDGLENAPQTFIGLLKGKNFGKVVIRVAGDD | 4.9643 ± 0.002 | 5.13 ± 1.2 | 5.03 ± 0.36 | 4.16 ± 0.6 | 3.3 ± 0.29 | 5.53 ± 0.19 | 10.3 ± 1 | 4.48 ± 0.35 | 7.42 ± 0.32 | 5.59 ± 0.22 | 10.9 ± 0.62 | 4.74 ± 0.34
4 | MGQSKKLNKQPSSLSPLVQLAGIRKCFDGKEVIPQLDLTINNGEFLTLLGPSGCGKTTVLRLIAGLETVDSGRIMLDNEDITHVPAENRYVNTVFQSYALFPHMTVFENVAFGLRMQKTPAAEITPRVMEALRMVQLETFAQRKPHQLSGGQQQRVAIARAVVNKPRLLLLDESLSALDYKLRKQMQNELKALQRKLGITFVFVTHDQEEALTMSDRIVVMRDGRIEQDGTPREIYEEPKNLFVAGFIGEINMFNATVIERLDEQRVRANVEGRECNIYVNFAVEPGQKLHVLLRPEDLRVEEINDDNHAEGLIGYVRERNYKGMTLESVVELENGKMVMVSEFFNEDDPDFDHSLDQKMAINWVESWEVVLADEEHK | 7.21 ± 0.97 |  | 5.83 ± 0.062 | 5.77 ± 0.36 | 3.46 ± 0.65 | 6.55 ± 0.38 | 11.9 ± 0.32 |  | 12.2 ± 0.83 | 6.41 ± 0.34 | 13.4 ± 0.35 | 5.7 ± 0.78
5 | MGQVLPLVTRQGDRIAIVSGLRTPFARQATAFHGIPAVDLGKMVVGELLARSEIPAEVIEQLVFGQVVQMPEAPNIAREIVLGTGMNVHTDAYSVSRACATSFQAVANVAESLMAGTIRAGIAGGADSSSVLPIGVSKKLARVLVDVNKARTMSQRLKLFSRLRLRDLMPVPPAVAEYSTGLRMGDTAEQMAKTYGITREQQDALAHRSHQRAAQAWSDGKLKEEVMTAFIPPYKQPLVEDNNIRGNSSLADYAKLRPAFDRKHGTVTAANSTPLTDGAAAVILMTESRAKELGLVPLGYLRSYAFTAIDVWQDMLLGPAWSTPLALERAGLTMSDLTLIDMHEAFAAQTLANIQLLGSERFAREALGRAHATGEVDDSKFNVLGGSIAYGHPFAATGARMITQTLHELRRRGGGFGLVTACAAGGLGAAMVLEAE |  | 5.81 ± 0.29 | 5.7 ± 0.78 | 5.43 ± 0.24 | 2.94 ± 0.14 | 6.16 ± 0.1 | 12.3 ± 1.9 | 6.23 ± 0.13 | 12 ± 0.41 | 6.44 ± 0.075 |  | 6.04 ± 0.061
6 | MGRISSGGMMFKAITTVAALVIATSAMAQDDLTISSLAKGETTKAAFNQMVQGHKLPAWVMKGGTYTPAQTVTLGDETYQVMSACKPHDCGSQRIAVMWSEKSNQMTGLFSTIDEKTSQEKLTWLNVNDALSIDGKTVLFAALTGSLENHPDGFNFK [P0AD59] | 5.34 ± 0.85 | 5.71 ± 1 | 6.18 ± 0.25 |  |  |  | 9.68 ± 1.2 | 5.85 ± 0.58 | 12.6 ± 0.36 | 5.4 ± 0.3 | 12.9 ± 1 | 6.285 ± 0.011
